# The DeepSol protein solubility set
# Assay: soluble on expression in E. coli; label from the status in PepcDB or PDB records
row,Sequence,soluble on expression in E. coli
1,MNNSGADEIGKLFVGGLDWSTTQETLRSYFSQYGEVVDCVIMKDKTTNQSRGFGFVKFKDPNCVGTVLASRPHTLDGRNIDPKPCTPRGMQPERTRPKEGWQKGPRSDNSKSNKIFVGGIPHNCGETELREYFKKFGVVTEVVMIYDAEKQRPRGFGFITFEDEQSVDQAVNMHFHDIMGKKVEVKRAEPRDSKSQAPGQPGASQWGSRVVPNAANGWAGQPPPTWQQGYGPQGMWVPAGQAIGGYGPPPAGRGAPPPPPPFTSYIVSTPPGGFPPPQGFPQGYGAPPQFSFGYGPPPPPPDQFAPPGVPPPPATPGAAPLAFPPPPSQAAPDMSKPPTAQPDFPYGQYAGYGQDLSGFGQGFSDPSQQPPSYGGPSVPGSGGPPAGGSGFGRGQNHNVQGFHPYRR,soluble
2,MNNTYNEKTHTLIKQLLKKFSPKVPGFAYMASFDSGVTYKGAVGLASIEENLPITTKSVFNIASVSKQFTAFSILLLEQEGRLSLDDSIVKFVPSIGTYAEPVTLRHLIHHTGGLVDYMELAHAENIEFTDILTVEQSLKHLNGHQIARFPVGTKFEYSNTGYFLLSLVVEKVSGKSLRQFAKERIFDSLNMKDTTIVDCYPTTISIARGYSKNEQGAYMVYESPWEHTGDGAVHATVEDLVKWGENLTTGTVGGKELVKRMSEIGPEISPTRETIIANEDYAFGLRLAEGFNCRYLEHSGSWAGYRSYFMRFPKEYLTVVVLSNYDGFDSKKYANEIAGIILEK,not soluble
3,MNPIVVLGSKVVDGQVTGLLASRLEKAIEVSSLTPEAPVVVSGFGEAAAMADYLRARGVTTIVEEPWATSTNENLENAHALFPDTLQWTVVTSGFHAWRTYLWAWHLGIPIKVVTARTPSAERLGMAMRECFALPHSTLRVLWRKIRTPKNLEHHHHHH,soluble
4,MNPKIVFFDIDDTLYRKYTDTLRPSVKTAVAALRGKGILTALATGRSLATIPEKVRDMMAEAGMDAVVTINGQFALLHGKTVREVPMDAGLMGRVCAHLDGLGMDYAFVGGEGIAVSALSECVCRALKHIASDFFADKDYFSSKPVYQMLVFAEENEMPL,not soluble
5,MNPPDISVLIVSFNTRDLLRRCLASLRDQAGGTGIETIVVDNASRDGSADMVEAEFPDVRLIRSPVNLGFGNANNLAFTQSRGRYLVLLNSDACLAPGLLDAASKRMDACPDVGMAGGRLVGPEGGWQPSARMFPSLLNEFLVLSGLAHRYPKSRLFGRFDRTWADPSEEAGVDWVPGAFAILRRDLIDRIGFFDPRFFLYYEEVDLCRRIRAAGCKIMYWPELVITHLGGESAKTLSDMEFSSHASQLTLWRMRSQALYYRKWHGLALAWSAKTLEQLWHWLRALRHRRSAPAKAHDSEALIRLWNRAWKETEGGRVSPPQPWLEHHHHHH,not soluble
6,MNPSVKIVVLSLPTATARRSQMSAMLGNTSLDWQYFDAHASLMCPNLHYDGAELRRHFGRNLSPPEIAVCSSHAAILQEFVDRNQADYILVLEDDVIFDTDFPLDQFCAFCASNGLEYVRLFGKHYAKAVHLGFFYDRSIVRFTTSPAGAQAYLMSRMAARRFLDSYQSIRATVDLAMDSFWITQLPIYSIFPYPIIERFSPTSIPMPPHTVEVRGLEHAIWQGARVVNKAKKILTNAKLRKSDESLRQRHWQFRQVGRVDVEQRRDPAAALEHHHHHH,soluble
7,MNPTTLADVDTVIINANILTLDRDCPHAQAIAFAAGRILALGTTQELSPLAGRAATVVDARGSTLLPGFIDSHSHLMFGGVVAQALDLTEAACLSDLLDMVRSRAQSTPEGEWIRGYGVAAGRLKEKRYPTRQELDQVSGGRPVWLAEDSFHASLVNSKAFRMLEIPLSTPGVELAADGSPTGAFLNDAANVPARQRVFGFISDDEARQMLQHVTQLGATRGVTTVHAFEGSRMSADRDIELLMRFRHELPIHVVPYYETFDVERAMQLGVSGVGGCGRNCLDGMPNIQTAAMVDPYCCSEERGSLFQESIKLHNFVIAAFERGMQVGMHAMGDAAIEQLLATYERAIEETGRTDLRPRIEHFHVPSRDHVRRAADLGVGLAVQPIFTHLWGGRDGIFFERLGERRYKRIDTYREILDSGAIASCGADLPVHPADPLRWIQLLVDNQIDRDQSVSMTEAIRMCTYNGAWLGFQESETGTLAVSKAADAVMLGRDPHQCMPHEIAAIPILKTLGGKLVFESSRPLEHHHHHH,not soluble
8,MNQQKSLTLIVALTTSYGIGRSNSLPWKLKKEISYFKRVTSFVPTFDSFESMNVVLMGRKTWESIPLQFRPLKGRINVVITRNESLDLGNGIHSAKSLDHALELLYRTYGSESSVQINRIFVIGGAQLYKAAMDHPKLDRIMATIIYKDIHCDVFFPLKFRDKEWSSVWKKEKHSDLESWVGTKVPHGKINEDGFDYEFEMWTRDL,soluble
9,MNQWMELADRVLAGAEVTDEEALSILHCPDEDILLLMHGAFHIRKHFYGKKVKLNMIMNAKSGLCPENCGYCSQSAISKAPIESYRMVNKETLLEGAKRAHDLNIGTYCIVASGRGPSNREVDQVVDAVQEIKETYGLKICACLGLLKPEQAKRLKDAGVDRYNHNLNTSQRNHSNITTSHTYDDRVNTVEIAKESGLSPCSGAIIGMKETKQDVIDIAKSLKALDADSIPVNFLHAIDGTPLEGVNELNPLYCLKVLALFRFINPSKEIRISGGREVNLRTLQPLGLYAANSIFVGDYLTTAGQEETEDHKMLSDLGFEVESVEEMKASLSAKSLEHHHHHH,not soluble
10,MNQYQKTTERKKQAIIQAALHLFKEKGFKGTSIKSIAKAAQVSPVSIYNYFESKESLVDLCVNKLFEEITQEAENILTSEIDFKMKLCQALALCQKKMSHQISVYFKEKTIKDPTFSKLLTKAIVAKKREIYRSYIKLGKDEGVIAKDLSTELILNVMDALNSIGNQLSESENLGEEIEQIHRLFLYGIFGKI,not soluble
11,MNRAEKREFVTWLNEAFRKSGSVIVAHYSGLTVSQMNDLRSKMSEAGGAIKVAKNRLAKIALQGTESESIVDLFSGQTLIAYSEDPITAPKVAVDFAKTNDKFVILGGSMGATSLSVDAVKSLASLPSLNELRAKLVGMISTPATRIAQVVNAPAGQVVRVIGAYAQEGKAA,not soluble
12,MNRPSGRAADQLRPIRITRHYTKHAEGSVLVEFGDTKVICTVSAESGVPRFLKGQGQGWLTAEYGMLPRSTGERNQREASRGKQGGRTLEIQRLIGRSLRAALDLSKLGENTLYIDCDVIQADGGTRTASITGATVALIDALAVLKKRGALKGNPLKQMVAAVSVGIYQGVPVLDLDYLEDSAAETDLNVVMTDAGGFIEVQGTAEGAPFRPAELNAMLELAQQGMQELFELQRAALAE,soluble
13,MNRSMKQYDPIDFVVDWVDSNDISWKKKKSLYEENVISSVDDSQARYRDWGIFKYWFRAVEKNAPWVHKIFIITDHQNPKFLNKHSSKIVFVNHEDFIPNEYLPTFNSDAIEIGIQNIPGLSEHFVFFNDDMFINKPVKPIDFFDGNIPKDSGVMGPQFPISNSITHITVNNMEIINKYFLKKKVLRKYFFKFFNWRYGKDNIRTATALPWQVFIGFYDMHIPISFLKSTFDNVWSEVGNLLSQNYQHRFRSQLDYSVWLMRYFQLASGNFFPRRTRFGKYYNLGEQTEEIINDIKTGKHALIVLNDQESINDYPYEKKLVNEVFERRYSRKSEFENLEHHHHHH,not soluble
14,MNRSNAQTERGRRWYVGDRLHVDVRGLPCPEPLVTVLRLIDGSEVGDGLTALVSQEPLLLYPELDARGCRYRMVTPAGDTLLRDGEVVLEIERSK,not soluble
15,MNRTDELRTARIESLVTPAELALRYPVTPGVATHVTDSRRRIEKILNGEDKRLLVIIGPCSIHDLTAAMEYATRLQSLRNQYQSRLEIVMRTYFEKPRTVVGWKGLISDPDLNGSYRVNHGLELARKLLLQVNELGVPTATEFLDMVTGQFIADLISWGAIGARTTESQIHREMASALSCPVGFKNGTDGNTRIAVDAIRAARASHMFLSPDKNGQMTIYQTSGNPYGHIIMRGGKKPNYHADDIAAACDTLHEFDLPEHLVVDFSHGNCQKQHRRQLEVCEDICQQIRNGSTAIAGIMAESFLREGTQKIVGSQPLTYGQSITDPCLGWEDTERLVEKLASAVDTRF,soluble
16,MNSGYSANIFPSSSSPTLYQSHQLPNPSATMYQATPRDMGKPPVRGKTSPYGFFVKMCYEEHKKKYPNENVQVTEISKKCSEKWKTMVDDEKRRFYELAQKDAERYQAEVSVAAYGGEDAMRKRKRAKKDPHAPKRALSAFFFYSQDKRPEIQAGHPDWKVGQVAQELGKMWKLVPQETKDMYEQKAQADKDRYADEMRNYKAEMQKMSGMDHYDDDNIHHVVHVEDINSQNIS,not soluble
17,MNSPANITDPLVLFMPSGKRGRFPVGTPVLDAARQLGVYVESVCGGRATCGRCQIEVQEGNFAKHKIVSSNDHISPKGPKEERYERVRGLPERRRLSCSAQILGDLVIDVPQDTVINAQTIRKDLEHHHHHH,not soluble
18,MNSRIETFHQMEWHFFSLISMELLSLEGLKACNSGMPIPALNPVFYSGKSTLLVAEIYQCKRFYESHSVPWALMVPDYLSDTKTDNVLAQSGFLSIDQGVAMYLSIQDLGMPGFKSDLLIKRMDNEMETWILPTIPAFESTAEIAKIYRVRHQEAIEKSSDIYHFSGFIQEQIVCSLTLTVMGDCARIDDVATFPKYQKNGYATQLILSELQILKDTNISWCFLEASADGLNIYKKIGFRELFKNLYYEEQYHYEQN,not soluble
19,MNTDVRIEKDFLGEKEIPKDAYYGVQTIRATENFPITGYRIHPELIKSLGIVKKSAALANMEVGLLDKEVGQYIVKAADEVIEGKWNDQFIVDPIQGGAGTSINMNANEVIANRALELMGEEKGNYSKISPNSHVNMSQSTNDAFPTATHIAVLSLLNQLIETTKYMQQEFMKKADEFAGVIKMGRTHLQDAVPILLGQEFEAYARVIARDIERIANTRNNLYDINMGATAVGTGLNADPEYISIVTEHLAKFSGHPLRSAQHLVDATQNTDCYTEVSSALKVCMINMSKIANDLRLMASGPRAGLSEIVLPARQPGSSIMPGKVNPVMPEVMNQVAFQVFGNDLTITSASEAGQFELNVMEPVLFFNLIQSISIMTNVFKSFTENCLKGIKANEERMKEYVEKSIGIITAINPHVGYETAAKLAREAYLTGESIRELCIKYGVLTEEQLNEILNPYEMIHPGIAGRK,soluble
20,MNTINRNYYPVSGIPAQDAPAQTDQLPPQGQGIKPGHNSNLIDFGLTQQANGPHSSLNTLGSRVQPTDTNTSSNMPGGNGEQVLNKLVQAIRNILNNLLSLLEGNLHNGSGPAQPQRDQTPTLAQSPSSASPSSSPPSTPQGNAEKPFVVQNDHPSEKPVSLQKNTEPTSAAPSQTAPRTTERSSATPDKTPARPDAVNPAVVHDLALPKTSTDTTAKPDNTVNAAKTATPAAHGQGADMSGIMGFAKEANTTGGNGGEVVTVNTVADLKKYMEDDKARTVKLGANLSADSKVTINFGANKTLLGTDKGNSLHNIYLASGKTASNDIFQNLNFDHDSRYRENGDMQMFISSGQKYWIDHNTYSGTKDQNAKGLDKLLYVGGTADNVSLTNSKFQNNEYGVILGQPDDSAQAKAEYKGYPRMTIANNVFSNLDVRAPGLMRHGQFDVLNNSIDNFHLGFTATGDATILSQANYFAKGVDVSDKASNSGVLDDYGDAHFKDIGSNVSFTQKSAVTAWTPSYQRDIKTAEAARAYDQANAGAKTVS,not soluble
21,MNTNDAKEYLARREIPQLFESLLNGLMCSKPEDPVEYLESCLQKVKELGGCDKVKWDTFVSQEKKTLPPLNGGQSRRSFLRNVMPENSNFPYRRYDRLPPIHQFSIESDTDLSETAELIEEYEVFDPTRPRPKIILVIGGPGSGKGTQSLKIAERYGFQYISVGELLRKKIHSTSSNRKWSLIAKIITTGELAPQETTITEIKQKLMQIPDEEGIVIDGFPRDVAQALSFEDQICTPDLVVFLACANQRLKERLL,soluble
